Assay results from patent US7976843B2, “Method for screening peptides for use in immunotherapy” (Institut National de la Santa et de la Recherche Medicale …, priority 2000, dated 2011).

Molecular target: HLA A2.1 molecule (Homo sapiens, UniProt P04439, D140Y/D185E/D98H/E176V/E277Q/G131W/G231S/I119V/I121R/I166T/I218V/L300P/L318F/N151K/N90K/P208A/P217A/Q86G/Q94H/R138H/R169H/T345S)
Assay: Stability of the peptide/HLA A2.1 complex (DC50) on T2 cells, flow cytometry
Format: binding
Details: […]; arrow in neighbouring cell gives direction
Procedure: For each incubation time, the cells are then labeled, as indicated above, with the BB7.2 antibody, and analyzed by flow cytometry in order to evaluate the amount of peptide/HLA A2.1 complex present at their surface. […] The DC50 (dissociation complex: DC) is defined as being the time required for the loss of 50% of the HLA A2.1/peptide complexes stabilized at t=0.

GILGPVFTL [Flu M58, reference compound]
DC50 Y1-DC50 WT: =0 hours
